Among the data in the RNAGym collection of RNA variant scans (doi:10.7554/elife.80360) are self-cleavage values, retold here.

B1: Hammerhead Ribozyme (parent)
chain: ACCGGAUGUGCUUUCCGGUCUGAUGAGUCCGUGAGGACGAAACAG

This data set covers variants of B1. Briefly: self-cleavage, relative activity (ratio to wild type); higher = more cleavage; co-transcriptional.
As for A34G A42G, the self-cleavage was determined as 0.264. In the case of A1C C16U, the self-cleavage is 0.347. C20U A40C: the self-cleavage is 0.407. Under C2G G25A stands 0.325. In the case of G10U U13G it was 0.674.

As to U9A G27U, the self-cleavage came out at 0.585. In the case of A26C A41U it was 0.299; in that of G27C A37U, 0.479; in that of A23U G25C, 0.31. In the case of U21G A34U it was 0.348; in that of G17A G18U, 0.318. In the case of A1U U32G it was 0.465; in that of G5U C20U, 0.595; in that of U7C C29U, 0.992. U14A A23G: the self-cleavage worked out at 0.351. Under G33C A42G stands 0.346; under U12G G45A, 0.719; under A37C G39U, 0.281. Take U19A U24G: the self-cleavage was found to be 0.327. In the case of C16U A41C it was 0.301; in that of C16G, 1.02. Under C15A A41G stands 0.325. On to U9A A26C, for which the self-cleavage was determined as 0.532. For the variant U9A A26U, the self-cleavage was 0.865.

With A23G G35U, the self-cleavage stood at 0.316. Under G25U A42G stands 0.246. In the case of U9G A42C it was 0.303; in that of U19G U32C, 0.449. In the case of G22A G31C it was 0.396. Consider C3U G5U, for which the self-cleavage turned out to be 1.4. Consider U13A G45C, for which the self-cleavage is 0.808. Under C11U U32A stands 0.889; under C2G G5A, 0.295.

Turning to G22C C29A, the self-cleavage was found to be 0.296.

Consider C11G G22A, for which the self-cleavage is 0.304.

For the variant G4U A40C, the self-cleavage turned out to be 0.224. In the case of G22A G36U it was 0.344; in that of U9A G25U, 0.342. In the case of U21A A40G it was 0.271. In the case of C3A A42C it was 0.313. As to C2A C15U, the self-cleavage stood at 0.466. Under C2A C15A stands 0.378; under G27U G35C, 0.407; under G25A G35C, 0.347.

In the case of U24G A42C, the self-cleavage is 0.343. Under C16G C29U stands 0.646; under G10C G36U, 0.56; under G17U U19G, 0.257. Take G18C A23U: the self-cleavage was 0.32.

With G18C A23G, the self-cleavage turned out to be 0.379. A1G C15G: the self-cleavage turned out to be 0.996. For the variant C2A G39U, the self-cleavage was determined as 0.327. For C2A A42U, the self-cleavage worked out at 0.332. In the case of C11A C20A it was 0.452; in that of C15G C38A, 0.446; in that of U12C A34G, 1.09. Consider G5U A41U, for which the self-cleavage was 0.332. Under C20A C29U stands 0.357. Under C3U C30A stands 1.05; under C11U U12G, 1.18.

Regarding A34C A42G, the self-cleavage came out at 0.254. In the case of U21A A34G it was 0.387; in that of G10A C29G, 0.853; in that of U7A C30U, 1.05. A26U U32A: the self-cleavage is 0.846. Turning to A26U U32G, the self-cleavage came to 0.466. On to G17U A42U, for which the self-cleavage is 0.369. In the case of G5U U13C it was 1.15; in that of A26C G27A, 0.313. In the case of C11A G45A it was 0.778. With C16A G35C, the self-cleavage was 0.573.

Turning to G25A A44U, the self-cleavage was determined as 0.343.

Turning to G31A C43A, the self-cleavage stood at 0.329. In the case of G31C A37C it was 1.05; in that of C3A G18C, 0.365; in that of C30A G39U, 0.418.

Take G36C C43G: the self-cleavage was determined as 0.286. In the case of U21C G33A it was 0.74; in that of A6G C20A, 0.4; in that of U9A A34U, 0.941. Under C29G A41G stands 0.338; under A23C A37C, 0.384. Under C2A G17C stands 0.359.

Regarding U13C G25U, the self-cleavage was 0.367.

For A26G G36U, the self-cleavage is 0.412.

As to C11G G27U, the self-cleavage is 0.527. In the case of A6C U19G it was 0.269; in that of G5U, 0.934.

On to A23G U24A, for which the self-cleavage was 0.645. Under C11A C38A stands 0.892; under C11G, 1.12; under A26G G45A, 0.3. Under G27U C43U stands 0.366. In the case of G8A G31C, the self-cleavage was found to be 0.889. In the case of G8A G31A, the self-cleavage turned out to be 0.849. As for G25C A41U, the self-cleavage was 0.319. In the case of A37G C43U it was 0.33; in that of A23C, 0.547. Under A23G G39C stands 0.33; under C16U C30G, 0.719; under G27U A44C, 0.305. Under G10A C20U stands 0.543; under G25A U28C, 0.355.

With G5C U14A, the self-cleavage was found to be 0.845. In the case of G5U G18U it was 0.343; in that of A26C G36C, 0.277; in that of C43U G45A, 0.419. In the case of C11G G17C it was 0.273; in that of U12G G35A, 0.674; in that of A6G G35C, 0.684.

Regarding A34G A41G, the self-cleavage came to 0.339. As to G36C A40G, the self-cleavage came out at 0.368. Under A40G C43U stands 0.268; under G27C A44C, 0.38; under G17U C38G, 0.539. Consider C3U U9C, for which the self-cleavage was 1.08. As for U14C A23U, the self-cleavage was 0.341. For the variant C3U U21C, the self-cleavage stood at 0.731. In the case of G18A A40U it was 0.288; in that of U21A G25C, 0.312; in that of U12C G18U, 0.626. In the case of G31C G33U it was 0.879; in that of C2G G17C, 0.329. Under A26U G33U stands 0.659; under A1C A44G, 0.594; under U14G C20G, 0.297. In the case of G22A A44C, the self-cleavage amounted to 0.372. Under C38G A40C stands 0.211. Under C38G A40G stands 0.357.

Consider U14C U28G, for which the self-cleavage was found to be 0.544. In the case of U7A U21G it was 0.319; in that of U19A C38G, 0.365. In the case of U19A C38U it was 0.358; in that of C20A U24G, 0.594; in that of G22A C30A, 0.392.

A6C G10A: the self-cleavage worked out at 0.68. On to G27C G45A, for which the self-cleavage is 0.432. For A1U G33A, the self-cleavage is 0.651.

For the variant G4U G17U, the self-cleavage is 0.294.

Consider G17C G36C, for which the self-cleavage came out at 0.246. With U9G U21G, the self-cleavage turned out to be 0.406.

Turning to G22C C30A, the self-cleavage turned out to be 0.346.

For the variant C3G A41G, the self-cleavage came out at 0.274. For C16U G18A, the self-cleavage is 0.618. Under U28G G39A stands 0.411; under G4C U19C, 0.297. Under G10A A34U stands 0.919; under U19G G27C, 0.288. In the case of U9A G10A it was 1.38; in that of C15U A34U, 0.843. As to G10A C30U, the self-cleavage was 1.06. Under G25C U28A stands 0.338. For the variant A1G A41C, the self-cleavage was determined as 0.461.

As to C30U G45A, the self-cleavage is 0.606. Under U24C G35A stands 0.702; under C3G G17C, 0.617. In the case of C15A A44G it was 0.897. With C3U G33C, the self-cleavage worked out at 0.957. Under U14G G18C stands 0.533; under G4U G18C, 0.275. In the case of G17C A42C it was 0.316. Under C3A U19A stands 0.316; under C16A G36C, 0.38. Turning to A1G U28G, the self-cleavage amounted to 1.33. Under G5A C43G stands 0.312.

For G25A A26U, the self-cleavage amounted to 0.341. In the case of G4U C16G it was 1.09.
